From article PMC8195987, “Structural basis for plazomicin antibiotic action and resistance” (Communications Biology, 2021)

Biological target: the molecule itself
Experiment: crystal structure; AAC(2′)-Ia at 10 mg/mL with 10 mM acetyl-CoA and 10 mM plazomicin, sitting-drop vapor diffusion at 4 °C, reservoir 0.2 M LiCl and 40% (v/v) MPD; product-bound state (acetylated plazomicin and CoA)

B1: AAC(2′)-Ia from Providencia stuartii (enzyme)
chain: MGIEYRSLHTSQLTLSEKEALYDLLIEGFEGDFSHDDFAHTLGGMHVMAFDQQKLVGHVAIIQRHMALDNTPISVGYVEAMVVEQSYRRQGIGRQLMLQTNKIIASCYQLGLLSASDDGQKLYHSVGWQIWKGKLFELKQGSYIRSIEEEGGVMGWKADGEVDFTASLYCDFRGGDQW
notes: AAC(2′)-Ia, aminoglycoside 2′-N-acetyltransferase of Providencia stuartii; synthesized aac(2′)-Ia gene cloned in pET-15b between NdeI and BamHI, N-terminal HIS-tag followed by a thrombin cleavage site; the tag was removed with thrombin; Homodimer in the crystal, each unit with acetylated plazomicin and CoA in the active site; also called aminoglycoside 2′-N-acetyltransferase; AAC(2′)-Ia …
Question: Does B1 bind?
Answer: Result: binds
